From publication PMC4825646, “MEC-10 and MEC-19 Reduce the Neurotoxicity of the MEC-4(d) DEG/ENaC Channel in Caenorhabditis elegans” (G3: Genes|Genomes|Genetics, 2016)

Biological target: the molecule itself
Test: single-molecule photobleaching step counting (TIRF microscopy); MEC-4::EGFP on the Xenopus oocyte surface in the presence of MEC-19, 1-2 d after cRNA injection; observed bleaching steps compared with the binomial distribution predicted for trimers

B1: C-terminally EGFP-tagged MEC-4 (natural protein, C. elegans, UniProt P24612 1-768, looked up)
chain: MSWMQNLKNYQHLRDPSEYMSQVYGDPLAYLQETTKFVTEREYYEDFGYGECFNSTESEVQCELITGEFDPKLLPYDKRLAWHFKEFCYKTSAHGIPMIGEAPNVYYRAVWVVLFLGCMIMLYLNAQSVLDKYNRNEKIVDIQLKFDTAPFPAITLCNLNPYKASLATSVDLVKRTLSAFDGAMGKAGGNKDHEEEREVVTEPPTTPAPTTKPARRRGKRDLSGAFFEPGFARCLCGSQGSSEQEDKDEEKEEELLETTTKKVFNINDADEEWDGMEEYDNEHYENYDVEATTGMNMMEECQSERTKFDEPTGFDDRCICAFDRSTHDAWPCFLNGTWETTECDTCNEHAFCTKDNKTAKGHRSPCICAPSRFCVAYNGKTPPIEIWTYLQGGTPTEDPNFLEAMGFQGMTDEVAIVTKAKENIMFAMATLSMQDRERLSTTKRELVHKCSFNGKACDIEADFLTHIDPAFGSCFTFNHNRTVNLTSIRAGPMYGLRMLVYVNASDYMPTTEATGVRLTIHDKEDFPFPDTFGYSAPTGYVSSFGLRLRKMSRLPAPYGDCVPDGKTSDYIYSNYEYSVEGCYRSCFQQLVLKECRCGDPRFPVPENARHCDAADPIARKCLDARMNDLGGLHGSFRCRCQQPCRQSIYSVTYSPAKWPSLSLQIQLGSCNGTAVECNKHYKENGAMVEVFYEQLNFEMLTESEAYGFVNLLADFGGQLGLWCGISFLTCCEFVFLFLETAYMSAEHNYSLYKKKKAEKAKKIASGSF
notes: MEC-4, C. elegans DEG/ENaC protein, wild type; construct described in Chen et al. (2015); also called MEC-4::EGFP; source: Xenopus laevis oocytes, cRNA injected, on the oocyte surface; not shown: EGFP, C-terminal, kept
- stoichiometry N: 3
